The target in one series is Her1 (zebrafish). Briefly: MITOMI (mechanically induced trapping of molecular interactions); GFP-tagged Her protein from wheat germ extract immobilised on the microfluidic chip surface with anti-GFP antibody and washed with PBS; mCherry-tagged protein expressed on chip in wheat germ extract with 250 nM Cy5-labelled DNA oligomer; 3 h at room temperature; slope of free against bound mCherry signal as relative affinity.

Series [1] concerns Her7 (coupled to chip, Fig 2D);Hes6-mCherry (zebrafish;zebrafish). Description: MITOMI. As to conditions: MITOMI in wheat germ TnT SP6 expression extract, 3 h at room temperature; PBS wash of immobilized protein; DNA spotted with 1% BSA; salt and pH not stated.
Another series concerns Her1-GFP (zebrafish). Description: MITOMI. As to conditions: PPARγ-mCherry present; MITOMI in wheat germ TnT SP6 expression extract, 3 h at room temperature; PBS wash of immobilized protein; DNA spotted with 1% BSA; salt and pH not stated.

In the series with Her1 (zebrafish), “MyoD (myogenic differentiation 1) (from UniProt Q90477 1-275) (natural protein)” registered a fold lower relative affinity than the Her1 homodimer (Her1-mCherry on Her1-GFP) of 3 fold.

Turning to seq 47 (control), the binding signal (relative to seq 2) in series [1] was 0.0137; with Her1-GFP (zebrafish), 0.0105.

For the substance seq 46 (control), the binding signal (relative to seq 2) in series [1] was determined as 0.0131; in the series with Her1-GFP (zebrafish), 0.0105.

As to Her7 (natural protein), in the series with Her1 (zebrafish), the fold lower relative affinity than the Her1 homodimer (Her1-mCherry on Her1-GFP) worked out at 3 fold.

The values above are taken from PMC3404119.
